Measured values published in the supplement of paper PMC5998384.

Assays:
HeLa Kyoto [1] = assay: thermal stability score vs G1/S (z-score of summed log2 fold changes over temperatures); higher = more thermally stable than in G1/S
HeLa Kyoto [2] = assay: solubility change mitosis vs G1/S (difference of NP-40 vs SDS log2 ratios) (log2 ratio difference); higher = more soluble in mitosis
HeLa Kyoto [3] = assay: melting temperature (median over replicates), in situ; higher = more thermally stable
HeLa Kyoto [4] = assay: solubility in G1/S (NP-40 vs SDS abundance) (log2 ratio); higher = more soluble; conditions: cell cycle stage: G1/S
[5] = cell cycle stage: early G1 (4.5 h after nocodazole release)
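Throughout, for melting temperature (median over replicates), in situ: HeLa Kyoto cells synchronized by double thymidine or nocodazole block, proteins quantified by TMT10plex mass spectrometry, three independent biological replicates.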
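Throughout, for solubility change mitosis vs G1/S (difference of NP-40 vs SDS log2 ratios): synchronized HeLa Kyoto cells (double thymidine block for G1/S, nocodazole release for mitosis), protein amounts in NP-40 versus SDS lysates quantified by mass spectrometry, three biological replicates.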
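Throughout, for solubility in G1/S (NP-40 vs SDS abundance): HeLa Kyoto cells arrested at G1/S by double thymidine block, proteins quantified by TMT10plex mass spectrometry in mild NP-40 versus SDS extracts, three biological replicates.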
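Throughout, for thermal stability score vs G1/S (z-score of summed log2 fold changes over temperatures): synchronized HeLa Kyoto cells, proteins quantified by TMT10plex mass spectrometry, three biological replicates, mitosis taken 0.5 h after nocodazole release, G1/S directly after double thymidine block.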

Sequence of NDRG1 (chain, as listed by the source): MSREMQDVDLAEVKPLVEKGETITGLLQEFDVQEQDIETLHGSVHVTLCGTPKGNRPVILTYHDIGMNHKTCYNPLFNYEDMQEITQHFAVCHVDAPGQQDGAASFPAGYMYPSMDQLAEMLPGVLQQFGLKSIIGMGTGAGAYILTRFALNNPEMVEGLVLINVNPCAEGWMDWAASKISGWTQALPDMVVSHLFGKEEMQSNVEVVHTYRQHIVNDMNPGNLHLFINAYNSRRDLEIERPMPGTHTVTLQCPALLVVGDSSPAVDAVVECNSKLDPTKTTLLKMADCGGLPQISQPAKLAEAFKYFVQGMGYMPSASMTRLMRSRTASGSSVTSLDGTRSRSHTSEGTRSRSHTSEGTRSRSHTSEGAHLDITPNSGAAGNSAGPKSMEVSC

Row | Substance | thermal stability score (HeLa Kyoto [1]; [5]) | thermal stability score (HeLa Kyoto [1]; cell cycle stage: mitosis) | solubility change mitosis (log2) (HeLa Kyoto [2]) | melting temperature (HeLa Kyoto [3]; cell cycle stage: G1/S) | melting temperature (HeLa Kyoto [3]; cell cycle stage: mitosis) | solubility in G1/S (log2) (HeLa Kyoto [4])
1 | MVMKASVDDDDSGWELSMPEKMEKSNTNWVDITQDFEEACRELKLGELLHDKLFGLFEAMSAIEMMDPKMDAGMIGNQVNRKVLNFEQAIKDGTIKIKDLTLPELIGIMDTCFCCLITWLEGHSLAQTVFTCLYIHNPDFIEDPAMKAFALGILKICDIAREKVNKAAVFEEEDFQSMTYGFKMANSVTDLRVTGMLKDVEDDMQRRVKSTRSRQGEERDPEVELEHQQCLAVFSRVKFTRVLLTVLIAFTKKETSAVAEAQKLMVQAADLLSAIHNSLHHGIQAQNDTTKGDHPIMMGFEPLVNQRLLPPTFPRYAKIIKREEMVNYFARLIDRIKTVCEVVNLTNLHCILDFFCEFSEQSPCVLSRSLLQTTFLVDNKKVFGTHLMQDMVKDALRSFVSPPVLSPKCYLYNNHQAKDCIDSFVTHCVRPFCSLIQIHGHNRARQRDKLGHILEEFATLQDEAEKVDAALHTMLLKQEPQRQHLACLGTWVLYHNLRIMIQYLLSGFELELYSMHEYYYIYWYLSEFLYAWLMSTLSRADGSQMAEERIMEEQQKGRSSKKTKKKKKVRPLSREITMSQAYQNMCAGMFKTMVAFDMDGKVRKPKFELDSEQVRYEHRFAPFNSVMTPPPVHYLQFKEMSDLNKYSPPPQSPELYVAASKHFQQAKMILENIPNPDHEVNRILKVAKPNFVVMKLLAGGHKKESKVPPEFDFSAHKYFPVVKLV [NAA35] | 0.213 | 0.348 | -0.198 | 51.5 °C | 51 °C | -0.305
2 | MFLPHMNHLTLEQTFFSQVLPKTVKLFDDMMYELTSQARGLSSQNLEIQTTLRNILQTMVQLLGALTGCVQHICATQESIILENIQSLPSSVLHIIKSTFVHCKNSESVYSGCLHLVSDLLQALFKEAYSLQKQLMELLDMVCMDPLVDDNDDILNMVIVIHSLLDICSVISSMDHAFHANTWKFIIKQSLKHQSIIKSQLKHKDIITSLCEDILFSFHSCLQLAEQMTQSDAQDNADYRLFQKTLKLCRFFANSLLHYAKEFLPFLSDSCCTLHQLYLQIHSKFPPSLYATRISKAHQEEIAGAFLVTLDPLISQLLTFQPFMQVVLDSKLDLPCELQFPQCLLLVVVMDKLPSQPKEVQTLWCTDSQVSETTTRISLLKAVFYSFEQCSGELSLPVHLQGLKSKGKAEVAVTLYQHVCVHLCTFITSFHPSLFAELDAALLNAVLSANMITSLLAMDAWCFLARYGTAELCAHHVTIVAHLIKSCPGECYQLINLSILLKRLFFFMAPPHQLEFIQKFSPKEAENLPLWQHISFQALPPELREQTVHEVTTVGTAECRKWLSRSRTLGELESLNTVLSALLAVCNSAGEALDTGKQTAIIEVVSQLWAFLNIKQVADQPYVQQTFSLLLPLLGFFIQTLDPKLILQAVTLQTSLLKLELPDYVRLAMLDFVSSLGKLFIPEAIQDRILPNLSCMFALLLADRSWLLEQHTLEAFTQFAEGTNHEEIVPQCLSSEETKNKVVSFLEKTGFVDETEAAKVERVKQEKGIFWEPFANVTVEEAKRSSLQPYAKRARQEFPWEEEYRSALHTIAGALEATESLLQKGPAPAWLSMEMEALQERMDKLKRYIHTLG [C1ORF112] | 0.547 | 1.23 | -0.0761 | 47.9 °C | 48.9 °C | -0.208
3 | MANNDAVLKRLEQKGAEADQIIEYLKQQVSLLKEKAILQATLREEKKLRVENAKLKKEIEELKQELIQAEIQNGVKQIPFPSGTPLHANSMVSENVIQSTAVTTVSSGTKEQIKGGTGDEKKAKEKIEKKGEKKEKKQQSIAGSADSKPIDVSRLDLRIGCIITARKHPDADSLYVEEVDVGEIAPRTVVSGLVNHVPLEQMQNRMVILLCNLKPAKMRGVLSQAMVMCASSPEKIEILAPPNGSVPGDRITFDAFPGEPDKELNPKKKIWEQIQPDLHTNDECVATYKGVPFEVKGKGVCRAQTMSNSGIK [AIMP1] | -0.0166 | 1.24 | 0.02 | 48.3 °C | 49.1 °C | 0.468
4 | MIPVAEFKQFTEQQPAFKVLKPWWDVLAEYLTVAMLMIGVFGCTLQVTQDKIICLPNHELQENLSEAPCQQLLPRGIPEQIGALQEVKGLKNNLDLQQYSFINQLCYETALHWYAKYFPYLVVIHTLIFMVCTSFWFKFPGTSSKIEHFISILGKCFDSPWTTRALSEVSGENQKGPAATERAAATIVAMAGTGPGKAGEGEKEKVLAEPEKVVTEPPVVTLLDKKEGEQAKALFEKVKKFRMHVEEGDILYTMYIRQTVLKVCKFLAILVYNLVYVEKISFLVACRVETSEVTGYASFCCNHTKAHLFSKLAFCYISFVCIYGLTCIYTLYWLFHRPLKEYSFRSVREETGMGDIPDVKNDFAFMLHLIDQYDSLYSKRFAVFLSEVSESRLKQLNLNHEWTPEKLRQKLQRNAAGRLELALCMLPGLPDTVFELSEVESLRLEAICDITFPPGLSQLVHLQELSLLHSPARLPFSLQVFLRDHLKVMRVKCEELREVPLWVFGLRGLEELHLEGLFPQELARAATLESLRELKQLKVLSLRSNAGKVPASVTDVAGHLQRLSLHNDGARLVALNSLKKLAALRELELVACGLERIPHAVFSLGALQELDLKDNHLRSIEEILSFQHCRKLVTLRLWHNQIAYVPEHVRKLRSLEQLYLSYNKLETLPSQLGLCSGLRLLDVSHNGLHSLPPEVGLLQNLQHLALSYNALEALPEELFFCRKLRTLLLGDNQLSQLSPHVGALRALSRLELKGNRLEALPEELGNCGGLKKAGLLVEDTLYQGLPAEVRDKMEEE [LRRC8E] | -1.17 | -1.48 | -0.0391 | 53.2 °C | 53.1 °C | 0.0423
5 | CC2D1A | 0.931 | 0.615 | -0.0691 | 49.7 °C | 49.6 °C | 0.298
6 | MAGMVDFQDEEQVKSFLENMEVECNYHCYHEKDPDGCYRLVDYLEGIRKNFDEAAKVLKFNCEENQHSDSCYKLGAYYVTGKGGLTQDLKAAARCFLMACEKPGKKSIAACHNVGLLAHDGQVNEDGQPDLGKARDYYTRACDGGYTSSCFNLSAMFLQGAPGFPKDMDLACKYSMKACDLGHIWACANASRMYKLGDGVDKDEAKAEVLKNRAQQLHKEQQKGVQPLTFG [COA7] | -1.59 | -1.97 | 0.0461 | 52.9 °C | 52.7 °C | 0.586
7 | MENKSLESSQTDLKLVAHPRAKSKVWKYFGFDTNAEGCILQWKKIYCRICMAQIAYSGNTSNLSYHLEKNHPEEFCEFVKSNTEQMREAFATAFSKLKPESSQQPGQDALAVKAGHGYDSKKQQELTAAVLGLICEGLYPASIVDEPTFKVLLKTADPRYELPSRKYISTKAIPEKYGAVREVILKELAEATWCGISTDMWRSENQNRAYVTLAAHFLGLGAPNCLSMGSRCLKTFEVPEENTAETITRVLYEVFIEWGISAKVFGATTNYGKDIVKACSLLDVAVHMPCLGHTFNAGIQQAFQLPKLGALLSRCRKLVEYFQQSAVAMYMLYEKQKQQNVAHCMLVSNRVSWWGSTLAMLQRLKEQQFVIAGVLVEDSNNHHLMLEASEWATIEGLVELLQPFKQVAEMLSASRYPTISMVKPLLHMLLNTTLNIKETDSKELSMAKEVIAKELSKTYQETPEIDMFLNVATFLDPRYKRLPFLSAFERQQVENRVVEEAKGLLDKVKDGGYRPAEDKIFPVPEEPPVKKLMRTSTPPPASVINNMLAEIFCQTGGVEDQEEWHAQVVEELSNFKSQKVLGLNEDPLKWWSDRLALFPLLPKVLQKYWCVTATRVAPERLFGSAANVVSAKRNRLAPAHVDEQVFLYENARSGAEAEPEDQDEGEWGLDQEQVFSLGDGVSGGFFGIRDSSFL [ZBED1] | 0.506 | 0.95 | -0.112 | 49.7 °C | 49.6 °C | 0.0447
8 | MAAAAGDADDEPRSGHSSSEGECAVAPEPLTDAEGLFSFADFGSALGGGGAGLSGRASGGAQSPLRYLHVLWQQDAEPRDELRCKIPAGRLRRAARPHRRLGPTGKEVHALKRLRDSANANDVETVQQLLEDGADPCAADDKGRTALHFASCNGNDQIVQLLLDHGADPNQRDGLGNTPLHLAACTNHVPVITTLLRGGARVDALDRAGRTPLHLAKSKLNILQEGHAQCLEAVRLEVKQIIHMLREYLERLGQHEQRERLDDLCTRLQMTSTKEQVDEVTDLLASFTSLSLQMQSMEKR [ANKRD54] | 0.324 | 3.1 | -0.169 | 51 °C |  | 0.0925
9 | NDRG1 | 1.68 | -0.0804 | 0.00645 | 53.1 °C | 53.6 °C | 0.246
10 | MFHLRTCAAKLRPLTASQTVKTFSQNRPAAARTFQQIRCYSAPVAAEPFLSGTSSNYVEEMYCAWLENPKSVHKSWDIFFRNTNAGAPPGTAYQSPLPLSRGSLAAVAHAQSLVEAQPNVDKLVEDHLAVQSLIRAYQIRGHHVAQLDPLGILDADLDSSVPADIISSTDKLGFYGLDESDLDKVFHLPTTTFIGGQESALPLREIIRRLEMAYCQHIGVEFMFINDLEQCQWIRQKFETPGIMQFTNEEKRTLLARLVRSTRFEEFLQRKWSSEKRFGLEGCEVLIPALKTIIDKSSENGVDYVIMGMPHRGRLNVLANVIRKELEQIFCQFDSKLEAADEGSGDVKYHLGMYHRRINRVTDRNITLSLVANPSHLEAADPVVMGKTKAEQFYCGDTEGKKVMSILLHGDAAFAGQGIVYETFHLSDLPSYTTHGTVHVVVNNQIGFTTDPRMARSSPYPTDVARVVNAPIFHVNSDDPEAVMYVCKVAAEWRSTFHKDVVVDLVCYRRNGHNEMDEPMFTQPLMYKQIRKQKPVLQKYAELLVSQGVVNQPEYEEEISKYDKICEEAFARSKDEKILHIKHWLDSPWPGFFTLDGQPRSMSCPSTGLTEDILTHIGNVASSVPVENFTIHGGLSRILKTRGEMVKNRTVDWALAEYMAFGSLLKEGIHIRLSGQDVERGTFSHRHHVLHDQNVDKRTCIPMNHLWPNQAPYTVCNSSLSEYGVLGFELGFAMASPNALVLWEAQFGDFHNTAQCIIDQFICPGQAKWVRQNGIVLLLPHGMEGMGPEHSSARPERFLQMCNDDPDVLPDLKEANFDINQLYDCNWVVVNCSTPGNFFHVLRRQILLPFRKPLIIFTPKSLLRHPEARSSFDEMLPGTHFQRVIPEDGPAAQNPENVKRLLFCTGKVYYDLTRERKARDMVGQVAITRIEQLSPFPFDLLLKEVQKYPNAELAWCQEEHKNQGYYDYVKPRLRTTISRAKPVWYAGRDPAAAPATGNKKTHLTELQRLLDTAFDLDVFKNFS [OGDH] | -0.752 | -1.63 | -0.178 | 52 °C | 51.7 °C | 0.0621
11 | MPKVKSGAIGRRRGRQEQRRELKSAGGLMFNTGIGQHILKNPLIINSIIDKAALRPTDVVLEVGPGTGNMTVKLLEKAKKVVACELDPRLVAELHKRVQGTPVASKLQVLVGDVLKTDLPFFDTCVANLPYQISSPFVFKLLLHRPFFRCAILMFQREFALRLVAKPGDKLYCRLSINTQLLARVDHLMKVGKNNFRPPPKVESSVVRIEPKNPPPPINFQEWDGLVRITFVRKNKTLSAAFKSSAVQQLLEKNYRIHCSVHNIIIPEDFSIADKIQQILTSTGFSDKRARSMDIDDFIRLLHGFNAEGIHFS [DIMT1] | 0.644 | 1.74 | 0.276 | 54.2 °C | 53.2 °C | -0.509
